Results reported in patent US20090181444A1, “MODIFIED CARBOHYDRATE PROCESSING ENZYME” (priority 2002, published 2009).

What was measured:
Type in all cases: biochemical
[1] = Hydrolysis of 4-methylumbelliferyl-β-D-galactoside, initial rates; conditions: 4-MUGal, 80° C., pH 6.5
Method: (§1) Parameters were determined by the method of initial rates. Activity was measured in time course assays of the hydrolysis of 4-methylumbelliferyl-β-D-glycosides (β-D-gluco, β-D-galacto, β-D-fuco, β-D-manno, β-D-xylo, β-D-glucurono) at 5-15 concentrations (0.001-1.5 mM) incubated at 80° C. in 50 mM sodium phosphate buffer, pH 6.5. Reactions were terminated at 2, 5, 10, 15 min by the addition of 100 μl of ice cold 1M NazCO3, pH 10 and analyzed (Labsystems Fluoroscan Ascent plate reader, […]). KM and kcat were derived by fitting the initial rates to hyperbolic Michaelis-Menten curves using GraFit 4 (Erithacus Software Ltd, Staines, UK).
(§2) Determination of the Michaelis-Menten parameters for the WT and mutant enzymes was performed at pH 6.5 at 80° C. for a broad range of representative, fluorophore-containing 4-methylumbelliferyl glycoside substrates, which allowed activities to be determined with a high degree of sensitivity (Table). Under these optimized assay conditions, the glucoside (Glc), galactoside (Gal) and fucoside (Fuc) substrates were hydrolysed well by SSβG-WT, but the xyloside (Xyl) substrate was hydrolysed relatively poorly (approx. 3% of turnover as determined by kcat compared with β-D-glucoside). […] In all cases the absolute D-stereospecificity and β-stereoselectivity of SSβG was maintained and no activity was detected towards L- or α-glycoside substrates.

[2] = Kinetic assay with p-nitrophenyl β-D-galactopyranoside, absorbance at 405 nm; conditions: pNPGal
Method: (§3) The kinetic activity of SsδG was assessed using ultra-violet/visible spectroscopy. Cleavage of the glycosidic bond of the nitrophenyl sugar analogue releases a chromophore (Scheme 18), either p-nitrophenol or o-nitrophenol.
(§4) The absorbance of these chromophores at 405 nm was continuously measured at regular time intervals, and the Beer-Lambert Law used to calculate the chromophore concentration at each of these time intervals.
(§5) In order to use this equation the extinction coefficient, ∈, of both p-nitrophenol and o-nitrophenol were calculated. Enzyme kinetic parameters were assessed using the initial rates method. The gradient of a plot of chromophore concentration against time gave the initial rate of reaction at a series of substrate concentrations (0.05-10 mM). Kinetic parameters were calculated by regression analysis of the kinetic data on the Michaelis-Menten Model (Fersht, A., Enzyme Structure and Mechanism, W.H. Freeman and Company, New York (1985)). The initial rate of reaction was measured. This model is valid when [substrate]>>[enzyme], which are initial rate conditions.
(§6) KM and νmax were calculated from non-linear Michaelis-Menten and linear Lineweaver-Burk plots. From these values, kcat and kcat/KM were calculated and compared.
(§7) KM=νmax/2, it is the concentration of substrate at which half the active sites are filled. Higher KM values correspond to weaker binding and lower KM values correspond to stronger binding kcat, the turnover number is the number of substrate molecules which are converted to product when the enzyme is saturated with substrate and ν (rate) is maximised. Given both of these considerations, binding and rate, kcat/KM is typically as a measure of the overall relative activity of the enzyme. To allow comparison of the activity of the enzymes, ln({kcat/KM}mutant/{kcat/KM}WT) was calculated for each enzyme-substrate combination, to give overall activity relative to WT.
Substrate solutions (concentration 10 mM in 50 mM pH 6.5 phosphate buffer) were prepared. Kinetic assays were conducted in a 96-well flat bottom microtitre plate. Eight substrate concentrations were chosen for the assay from the range 0.05 mM to 10 mM (prepared from 10 mM stock solution), based on previous experimental experience of the kinetics of each enzyme (default range 0.05 mM to 2.00 mM)*. The enzyme stock solution (˜1 mgmL^−1) was diluted between 16- and 80-fold depending on the kinetic parameters determined*. The enzyme solution (496 µL) was dispensed into a 1.5 mL sealed Eppendorf tube. Into eight further Eppendorf tubes a portion of each substrate solution (650 μL) was dispensed. The tubes were incubated in a Techni Dri Block at 45° C. Simultaneously a 96-well flat bottom microtitre plate was incubated at 45° C. in a plate reader. […] The plate containing the enzyme and substrate solutions was then incubated in the plate reader at 45° C. to allow equilibration. […] Release of p-nitrophenol/o-nitropbenol was measured by absorbance at […], with an automix of 3 s before the first read and Is between every subsequent read. The run time chosen was between 6 min and 10 min*, and readings were taken at intervals of between 6 s and 10 s*.
(§8) A graph of concentration of the released chromophore (either pNP or oNP) against time was drawn for each concentration using Microsoft Excel. […] These gradients were entered into Grafit, which calculated KM and νmax from the Michelis-Menten and Lineweaver-Burk plots. From these kcat and kcat/KM could be calculated. […]

[3] = Substrate specificity compared across 4-methylumbelliferyl-β-D-glycosides
Method: as §1, §2

[4] = Hydrolysis of 4-methylumbelliferyl-β-D-glucuronide, initial rates; conditions: 80° C., pH 6.5
Method: as §1, §2

[5] = Kinetic assay with o-nitrophenyl β-D-galactopyranoside-6-phosphate, absorbance at 405 nm; conditions: oNPGalP6, 45° C., pH 6.5 phosphate buffer; averaged over 3 runs, except * 2 runs
Method: as §3, §4, §5, §6
as §7, with “Given both of these considerations, binding and rate, kcat/KM is typically as a measure of the overall relative activity of the enzyme.” left out
Substrate solutions (concentration 10 mM in 50 mM pH 6.5 phosphate buffer) were prepared. […] The enzyme stock solution (˜1 mgmL^−1) was diluted between 16- and 80-fold depending on the kinetic parameters determined*. […] Simultaneously a 96-well flat bottom microtitre plate was incubated at 45° C. in a plate reader. […] The plate containing the enzyme and substrate solutions was then incubated in the plate reader at 45° C. to allow equilibration. […] Release of p-nitrophenol/o-nitropbenol was measured by absorbance at […], with an automix of 3 s before the first read and Is between every subsequent read. The run time chosen was between 6 min and 10 min*, and readings were taken at intervals of between 6 s and 10 s*.
as §8

B1: WT: Wild type β-glycosidase from Sulfolobus solfataricus (SEQ ID NO: 2), recombinant with N-terminal His6-tag (protein, listed as Sulfolobus solfataricus)
chain: MYSFPNSFRFGWSQAGFQSEMGTPGSEDPNTDWYKWVHDPENMAAGLVSGDLPENGPGYWGNYKTFHDNAQKMGLKIARLNVEWSRIFPNPLPRPQNFDESKQDVTEVEINENELKRLDEYANKDALNHYREIFKDLKSRGLYFILNMYHWPLPLWLHDPIRVRRGDFTGPSGWLSTRTVYEFARFSAYIAWKFDDLVDEYSTMNEPNVVGGLGYVGVKSGFPPGYLSFELSRRHMYNIIQAHARAYDGIKSVSKKPVGIIYANSSFQPLTDKDMEAVEMAENDNRWWFFDAIIRGEITRGNEKIVRDDLKGRLDWIGVNYYTRTVVKRTEKGYVSLGGYGHGCERNSVSLAGLPTSDFGWEFFPEGLYDVLTKYWNRYHLYMYVTENGIADDADYQRPYYLVSHVYQVHRAINSGADVRGYLHWSLADNYEWASGFSMRFGLLKVDYNTKRLYWRPSALVYREIATNGAITDEIEHLNSVPPVKPLRH
modifications: N-terminal His6 tag
Km [1]: 66 ± 17 µM
kcat [1]: 98 ± 7 s⁻¹
kcat ([2]; 45° C., pH 6.5 phosphate buffer, averaged over 3 runs, except * 2 runs): 5.07 s⁻¹
Km ([2]; 45° C., pH 6.5 phosphate buffer, averaged over 3 runs, except * 2 runs, read-out: KM): 459 µM
Km ([2]; read-out: average KM): 459 µM
specificity range of kcat/KM for Glc:Gal:Xyl:Man [3]: 100 fold
kcat ([4]; 4-MUGlcA): 0.81 ± 0.18 s⁻¹
Km ([4]; 4-MUGlcA, read-out: Km): 1.3 ± 0.4 mM
β-D-glucuronide activity, turnover relative to β-D-glucoside [4]: ~0.5%
Km [5]: 2.09 mM
kcat [5]: 5.52 s⁻¹
